Two proteins from article PMC5394417, “Investigating the molecular mechanism of positive and negative allosteric modulators in the calcium-sensing receptor dimer” (Scientific Reports, 2017) can be followed below.

This data set concerns the molecule itself. The experiment in a line: FRET or BRET; TR-FRET dimerization assay on transiently transfected HEK293T cells co-expressing an HA-tagged and a myc-tagged construct (1:1); Tb3+-conjugated anti-HA antibody (donor, 1 nM) and d2-conjugated anti-myc antibody (acceptor, 50 nM), 24 h at 4 °C; HBSS, 20 mM HEPES, 0.5 mM CaCl2, 0.5 mM MgCl2, 5 mg/mL bovine serum albumin, pH 7.4; FRET ratio (665 nm/615 nm) normalized to pEGFPN1. For orientation: Bioluminescence resonance energy transfer reports proximity on the nanometre scale.

B1: rat GPRC6A, wild type (receptor, UniProt Q70VB1 21-928, looked up)
chain: CHTPDDFVAITSPGHIMIGGLFAIHEKMLSSDDHPRQPQIQKCVGFEISVFLQTLAMIHSIEMINNSSLLSGVKLGYEIYDTCTEVTAAMAATLRFLSKFNCSRETVIFQCDYSSYVPRVKAIIGAGYSEISMAVSRMLNLQLMPQVSYESTAEILSDKIRFPSFLRTVPSDFYQTKAMAHLIRQSGWNWVGAITTDDDYGRLALNTFAIQAAENNVCIAFKEVLPAFLSDNTIEVRINQTLEKIIAEAQVNVIVVFLRKFHVFNLFNKAIERKISKIWIASDNWSTAAKIITIPNVKKLGKVVGFTFRRGNMSSFHSFLQTLHMYPSDNNKPLHEFAMLFSACKHIKDGDLSQCISNYSQATWTYDTTKTIETHLFKRNDFLWHYTEPGLIHSIQLAVLALGHAIRDLCQDRDCQKPNAFQPWELLAVLKNVTFTDGKNSFHFDAHGDLNTGYEVVLWKETNGLMTVTKMAEYDLQHDVFITTNQETKHEFRKLKQILSKCSKECIPGQMKKATGSQHSCCYECVNCPENHYSNETDMDHCLVCNNETHWAPVRSTMCFEKEVEYLDWDDSLALLLIALSLLGIAFVLAVGIIFTRNLKTPVVKSSGGLVVCYVMLACHALNFASTGFFIGEPQDFTCKTRQTLFGVSFTLCVSCILTKSLKILLAFSFDPTLKTFLKCLYRPVPIVLTCTGIQVVICTLWLVLAAPTVEENTSLPRVIILECEEGSALAFGTMLGYIAVLAFICFVFAFKGRKLPENYNEAKFLTFGMLIYFIAWITFIPVYATTFGKYLPAVEIIVILISNYGILCCTFFPKCYIILCKQKTNTKSVFLQMVYNYSAHSVDSLALSHVSLDSASHSTATTNPRPGNKTAACQNYKHLPVQVLAHTGMEKTMHASKTLHQKRSSSI
notes: GPRC6A, rat; previously described myc-tagged rat GPRC6A-pEGFPN1 construct with the mGluR5 signal peptide upstream of the myc tag; Each copy carries one tag only, HA or myc; the HA-GPRC6A construct is not described; also called WT myc-GPRC6A; WT HA-GPRC6A; source: HEK293T, transiently transfected (Lipofectamine 2000), on cells; not shown: HA (one copy), N-terminal, kept; myc (the other copy), …
On to B1, for which the “fold increase in FRET signal” value turned out to be 9.8 fold.

B2: rat calcium-sensing receptor, wild type (receptor, UniProt P48442 20-1079, looked up)
chain: YGPDQRAQKKGDIILGGLFPIHFGVAAKDQDLKSRPESVECIRYNFRGFRWLQAMIFAIEEINSSPSLLPNMTLGYRIFDTCNTVSKALEATLSFVAQNKIDSLNLDEFCNCSEHIPSTIAVVGATGSGVSTAVANLLGLFYIPQVSYASSSRLLSNKNQYKSFLRTIPNDEHQATAMADIIEYFRWNWVGTIAADDDYGRPGIEKFREEAEERDICIDFSELISQYSDEEEIQQVVEVIQNSTAKVIVVFSSGPDLEPLIKEIVRRNITGRIWLASEAWASSSLIAMPEYFHVVGGTIGFGLKAGQIPGFREFLQKVHPRKSVHNGFAKEFWEETFNCHLQEGAKGPLPVDTFVRSHEEGGNRLLNSSTAFRPLCTGDENINSVETPYMDYEHLRISYNVYLAVYSIAHALQDIYTCLPGRGLFTNGSCADIKKVEAWQVLKHLRHLNFTNNMGEQVTFDECGDLVGNYSIINWHLSPEDGSIVFKEVGYYNVYAKKGERLFINEEKILWSGFSREVPFSNCSRDCQAGTRKGIIEGEPTCCFECVECPDGEYSGETDASACDKCPDDFWSNENHTSCIAKEIEFLAWTEPFGIALTLFAVLGIFLTAFVLGVFIKFRNTPIVKATNRELSYLLLFSLLCCFSSSLFFIGEPQDWTCRLRQPAFGISFVLCISCILVKTNRVLLVFEAKIPTSFHRKWWGLNLQFLLVFLCTFMQILICIIWLYTAPPSSYRNHELEDEIIFITCHEGSLMALGSLIGYTCLLAAICFFFAFKSRKLPENFNEAKFITFSMLIFFIVWISFIPAYASTYGKFVSAVEVIAILAASFGLLACIFFNKVYIILFKPSRNTIEEVRSSTAAHAFKVAARATLRRPNISRKRSSSLGGSTGSIPSSSISSKSNSEDRFPQPERQKQQQPLSLTQQEQQQQPLTLHPQQQQQPQQPRCKQKVIFGSGTVTFSLSFDEPQKNAMAHRNSMRQNSLEAQRSNDTLGRHQALLPLQCADADSEMTIQETGLQGPMVGDHQPEMESSDEMSPALVMSTSRSFVISGGGSSVTENVLHS
notes: calcium-sensing receptor (CaSR), rat; Each copy carries one tag only, HA or myc; the two differently tagged copies were co-expressed; The mGluR5 signal peptide stands upstream of the tag; also called CaSR; WT HA-CaSR; source: HEK293T, transiently transfected (Lipofectamine 2000), on cells; not shown: HA (one copy), N-terminal, kept; myc (the other copy), N-terminal, kept
Regarding B2, the “fold increase in FRET signal” value is 11.8 fold.
